Results on four molecules are retold here after patent US10864269B2, “Therapeutic combinations comprising anti-CD73 antibodies and uses thereof” (MedImmune Limited, priority 2014, dated 2020).

Usually Kd stands for a measure of binding affinity in units of concentration.

One assay deals with T1, murine CD73 (Mus musculus, UniProt Q61503).
T1 sequence (Q61503 29-551): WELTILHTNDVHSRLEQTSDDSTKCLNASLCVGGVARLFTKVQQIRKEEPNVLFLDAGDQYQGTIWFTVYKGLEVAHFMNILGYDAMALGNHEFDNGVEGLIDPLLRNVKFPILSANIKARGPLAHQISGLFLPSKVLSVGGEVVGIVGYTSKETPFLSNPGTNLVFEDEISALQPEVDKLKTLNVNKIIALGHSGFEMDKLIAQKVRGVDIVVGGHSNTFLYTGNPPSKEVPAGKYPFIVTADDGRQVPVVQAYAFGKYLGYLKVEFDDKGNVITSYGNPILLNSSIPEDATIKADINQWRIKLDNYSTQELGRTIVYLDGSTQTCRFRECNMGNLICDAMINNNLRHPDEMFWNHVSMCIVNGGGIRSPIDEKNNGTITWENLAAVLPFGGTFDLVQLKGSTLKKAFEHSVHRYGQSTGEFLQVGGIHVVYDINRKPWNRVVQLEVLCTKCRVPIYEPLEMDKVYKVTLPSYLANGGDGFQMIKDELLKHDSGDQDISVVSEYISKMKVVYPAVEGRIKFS
Description: Solution binding, murine CD73. The following applies: as measured by solution binding.

Assay [1] has as its target T2, native CD73, MDA-MB-231 cells (Homo sapiens, UniProt P21589).
T2 construct: native CD73 expressed on human, murine, and cynomolgus monkey cell lines; endogenous in cells; host or cells: MDA-MB-231
T2 sequence (P21589 27-549): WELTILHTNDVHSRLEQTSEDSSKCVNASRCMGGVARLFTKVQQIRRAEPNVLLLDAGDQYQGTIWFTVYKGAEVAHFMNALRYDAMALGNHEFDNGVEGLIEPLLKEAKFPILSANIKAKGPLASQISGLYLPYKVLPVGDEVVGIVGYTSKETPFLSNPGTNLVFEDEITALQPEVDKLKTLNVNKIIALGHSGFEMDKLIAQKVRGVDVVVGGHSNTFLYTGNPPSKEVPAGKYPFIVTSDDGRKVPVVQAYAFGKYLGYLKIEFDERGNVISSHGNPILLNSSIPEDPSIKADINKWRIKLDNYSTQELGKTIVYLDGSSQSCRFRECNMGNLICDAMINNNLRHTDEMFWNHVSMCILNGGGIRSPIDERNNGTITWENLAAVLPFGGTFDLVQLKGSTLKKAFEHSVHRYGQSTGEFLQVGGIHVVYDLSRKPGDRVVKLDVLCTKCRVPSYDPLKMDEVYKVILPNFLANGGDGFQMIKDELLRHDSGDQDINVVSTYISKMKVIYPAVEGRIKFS
Kind of assay: Flow cytometry binding to native CD73, MDA-MB-231 cells. The following applies: as measured by flow cytometry; read-out: KD, CD73 on the surface of MB-MDA-231 cells. On the procedure: (§1) Binding of MEDI9447 to native CD73 expressed on human, murine, and cynomolgus monkey cell lines was characterized by flow cytometry. The cells were incubated with various concentrations of MEDI9447 and antibody binding was monitored with and fluorophore-labeled anti-human Fc antibody. A plot of the median fluorescence intensity as a function of the MEDI9447 concentration was fitted nonlinearly using a one-site binding isotherm model to calculate the equilibrium dissociation constant.
(§2) The affinity of enhanced anti-CD73 antibodies (in IgG1-TM format) to human, murine, and cynomolgus CD73 was determined by flow cytometry and surface plasmon resonsance (SPR) (Table 13). The enhanced antibodies had pM affinity to cellular and recombinant CD73 from the three species.
(§3) All flow cytometry experiments were run at 4C and reagents were prepared in PBS/1% FBS buffer. 10,000 cells were incubated with test antibody in 50 uL volume for 4 hours. Cells were washed twice and incubated in 50 uL goat anti-human IgGFc-AlexaFluor647 conjugate for 15 minutes. Cells were washed, resuspended in buffer supplemented with Dapi, and analyzed on a flow cytometer. […] For the determination of KD values, a plot of the median fluorescence intensity as a function of test antibody concentration was fitted nonlinearly using a one site binding isotherm model.

The target in assay [2] is T3, huCD73 (Homo sapiens, UniProt P21589).
T3 sequence (P21589 27-549): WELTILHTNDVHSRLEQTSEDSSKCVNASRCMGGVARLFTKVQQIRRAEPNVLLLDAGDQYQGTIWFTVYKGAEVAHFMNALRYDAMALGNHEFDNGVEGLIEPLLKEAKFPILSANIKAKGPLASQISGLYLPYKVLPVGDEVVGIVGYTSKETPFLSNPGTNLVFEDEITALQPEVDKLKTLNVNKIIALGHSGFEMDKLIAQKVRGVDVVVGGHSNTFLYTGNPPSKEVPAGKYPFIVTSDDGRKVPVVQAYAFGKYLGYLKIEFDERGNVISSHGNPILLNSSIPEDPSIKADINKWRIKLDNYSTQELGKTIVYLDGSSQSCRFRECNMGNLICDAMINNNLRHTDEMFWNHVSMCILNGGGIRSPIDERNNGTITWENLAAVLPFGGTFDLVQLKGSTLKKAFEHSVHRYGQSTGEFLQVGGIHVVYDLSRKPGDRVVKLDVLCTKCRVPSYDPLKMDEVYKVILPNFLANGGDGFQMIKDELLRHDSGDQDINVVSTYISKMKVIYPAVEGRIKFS
Kind of assay: Solution binding, human CD73. The following applies: as measured by solution binding.

Another assay deals with cynomolgus CD73. Description: Solution binding, cynomolgus CD73. Particulars: as measured by solution binding.
Another assay deals with native CD73, MK-1 cells. Kind of assay: Flow cytometry binding to native CD73, MK-1 cells. The following applies: as measured by flow cytometry; read-out: KD, CD73 on the surface of cynomolgus MK-1 cells. On the procedure: as §1, §2, §3
For another assay, the target named is T4, muCD73 (Mus musculus, UniProt Q61503).
T4 sequence (Q61503 29-551): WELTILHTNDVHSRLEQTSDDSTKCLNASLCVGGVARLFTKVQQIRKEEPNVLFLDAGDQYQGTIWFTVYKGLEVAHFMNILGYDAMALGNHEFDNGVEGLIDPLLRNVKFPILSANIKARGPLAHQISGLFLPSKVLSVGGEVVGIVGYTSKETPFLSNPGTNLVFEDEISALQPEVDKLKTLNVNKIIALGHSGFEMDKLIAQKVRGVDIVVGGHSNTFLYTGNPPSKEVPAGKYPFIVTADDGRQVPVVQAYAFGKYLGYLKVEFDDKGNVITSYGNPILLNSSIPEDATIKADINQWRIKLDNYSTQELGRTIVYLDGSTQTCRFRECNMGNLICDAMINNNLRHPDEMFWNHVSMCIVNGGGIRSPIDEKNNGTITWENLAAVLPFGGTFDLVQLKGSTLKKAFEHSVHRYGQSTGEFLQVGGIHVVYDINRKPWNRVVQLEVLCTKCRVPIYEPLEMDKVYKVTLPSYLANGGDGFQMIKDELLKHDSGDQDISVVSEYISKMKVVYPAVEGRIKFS
Description: ELISA binding of Fab variants to murine CD73. The following applies: combinatorial Fab library clones, capture ELISA and direct ELISA. An excerpt:
(§4) CD730010GL9 IgG1-TM was enhanced by screening Fab libraries comprising variant CDR sequences with single amino acid mutations. Each of the 61 positions in the six CDRs was individually randomized to 19 amino acids (all natural amino acids except Cysteine), generating a library with a theoretical diversity of 1159 unique clones (19 amino acids per position times 61 positions). Bacterial Fab fragments were produced from 4224 clones of the library and screened for binding to human and murine CD73 protein by capture ELISA (Assay 2). 180 clones with increased binding signal compared to parental CD730010 GL9 IgG1-TM were selected and the mutations in the VH or VL domain were identified by DNA sequencing. The Fab concentration in the bacterial supernatants was normalized and the binding of the normalized supernatants to human and murine CD73 protein was evaluated by direct ELISA (Assay 1). Table 11 lists selected beneficial single amino acid substitutions and their effect on binding to recombinant CD73 protein.
(§5) To further improve the affinity of the anti-CD73 antibody, several single amino acid changes which improved binding when compared to parental CD730010 GL9 were combined to create a combinatorial Fab library (Assay 4). Fab fragments of 4224 clones of the combinatorial library were produced in E. coli and screened for binding to human and murine CD73 protein by capture ELISA. […]
(§6) 384-well ELISA plates were coated with about 1.5 ng/well recombinant CD73 protein, blocked with 1% BSA/0.1% Tween20/PBS and incubating with antibody samples for 90 minutes at room temperature. […] HRP activity was detected with tetra methyl benzidine (TMB) substrate and the reaction was stopped with 1 M HCl. Plates were read at 450 nm.
(§7) 384-well ELISA plates were coated with about 3 ng/well sheep-anti-human Fd antibody (for screening antibodies in Fab format), blocked with 1% BSA/0.1% Tween20/PBS and incubating with samples for 90 minutes at room temperature. […] HRP activity was detected with tetra methyl benzidine (TMB) substrate and the reaction was stopped with 1 M HCl. Plates were read at 450 nm.

The target of assay [3] is T3, huCD73. Kind of assay: ELISA binding of Fab variants to human CD73. Particulars: combinatorial Fab library clones, capture ELISA and direct ELISA.
Text: as §4, §5, §6, §7

B1: CD730002 2C5: IgG1 with CD730002-derived VL of SEQ ID NO: 88 and VH of SEQ ID NO: 87 (antibody, V domains shown)
VH: EVQLLESGGGLVQPGGSLRLSCAASGFTFSSYAMSWVRQAPGKGLEWVSAISGSGGSTYYADSVKRRFTISRDNSKNTLYLQMNSLRAEDTAVYYCARDKGYYWYMDVWGQGTMVTVSS
VL: QSVLTQPPSVSVSPGQTASITCSGDKVGDKYASWYQQKPGQSPVLVIYEDTKRLSGIPERFSGSNSGNTATLTISGTQAMDEADYYCQAWDTSFWVFGGGTKLTVL
In the case of B1, the Kd with murine CD73 is ~1.5 nM; in assay [1], ~0.08 nM; with huCD73 [2], ~0.08 nM; on cynomolgus CD73, ~0.1 nM; with native CD73, MK-1 cells, ~0.06 nM.

B2: C2: combinatorial library clone of CD730010 GL9; VL SEQ ID NO: 61, VH SEQ ID NO: 75 (antibody, V domains shown)
VH: EVQLLESGGGLVQPGGSLRLSCAASGFTFSSYAYSWVRQAPGKGLEWVSLIWGSWGSTYYADSVKGRFTISRDNSKNTLYLQMNSLRAEDTAVYYCARLGYSTIDMWGRGTLVTVSS
VL: QSVLTQPPSASGTPGQRVTISCSGSLSNIGRNPVNWYQQLPGTAPKLLIYLDNLRLGGVPDRFSGSKSGTSASLAISGLQSEDEADYYCATWDDSLKGWLFGGGTKLTVL
B2: the “binding to murine CD73” value with muCD73 was “strong binding”. Also, in the assay with huCD73 [3], the “binding to human CD73” value is reported as “strong binding”.

B3: G10: combinatorial library clone of CD730010 GL9; VL SEQ ID NO: 63, VH SEQ ID NO: 77 (antibody, V domains shown)
VH: EVQLLESGGGLVQPGGSLRLSCAASGFTFSSYAYSWVRQAPGKGLEWVSAISGSWGRTYYADSVKGRFTISRDNSKNTLYLQMNSLRAEDTAVYYCARLGYSTIDLWGRGTLVTVSS
VL: QSVLTQPPSASGTPGQRVTISCSGSLSNIGRNDVNWYQQLPGTAPKLLIYLNNQRLGGVPDRFSGSKSGTSASLAISGLQSEDEADYYCATWDDSLKGWLFGGGTKLTVL
Take B3: the “binding to murine CD73” value with muCD73 is listed as “strong binding”. The “binding to human CD73” value in the assay with huCD73 [3] is reported as “strong binding”.

B4: D3: combinatorial library clone of CD730010 GL9; VL SEQ ID NO: 62, VH SEQ ID NO: 76 (antibody, V domains shown)
VH: EVQLLESGGGLVQPGGSLRLSCAASGFTFSSYAYSWVRQAPGKGLEWVSAISGSGGRTYYADSVKGRFTISRDNSKNTLYLQMNSLRAEDTAVYYCARLGYSTIDLWGRGTLVTVSS
VL: QSVLTQPPSASGTPGQRVTISCSGSLSNIGRNPVNWYQQLPGTAPKLLIYLDNLRLSGVPDRFSGSKSGTSASLAISGLQSEDEADYYCATWDDSLIGWLFGGGTKLTVL
Take B4: the “binding to murine CD73” value with muCD73 is on record as “strong binding”. Moreover, the “binding to human CD73” value in the assay with huCD73 [3] is “strong binding”.
